# Article PMC12797002, “Hydrophobic residues in the α‐synuclein NAC domain drive seed‐competent fibril formation and are targeted by peptide inhibitors” (The Febs Journal, 2025)
# B1: NAC11 (peptide, UniProt P37840 68-78, looked up)
# peptide: GAVVTGVTAVA
# notes: alpha-synuclein, residues 68-78 (NAC residues 8-18); also called NACore; αSyn 68–78; source: synthetic peptide (GenScript Biotech, purity ≥ 95%)
# B2: NAC16 (peptide, UniProt P37840 63-78, looked up)
# peptide: VTNVGGAVVTGVTAVA
# notes: alpha-synuclein, residues 63-78 (NAC residues 3-18); also called αSyn 63–78; source: synthetic peptide (GenScript Biotech, purity ≥ 95%)
# Legend:
# [1] = target: the molecule itself; experiment: ANS fluorescence aggregation kinetics; 100 μM NAC peptide, 40 μM ANS, 1× PBS at acidic (pH 4.2 in the methods, 4.5 in the legend), neutral (7.2) or basic (8.0) pH, 37 °C, 1000 rpm
# [2] = target: the molecule itself; experiment: co-sedimentation; 100 μM NAC peptide incubated 48 h without ThT, centrifuged at 65 000 g for 1 h; UV–Vis spectra (400–600 nm) of soluble and insoluble fractions
Protein,binding result [1],binding result [2]
B1,binds,
B2,,binds
